Measured values as given in paper PMC10243133 (Proceedings of the National Academy of Sciences of the …, 2023).

Assays:
mutant GLP-1R = conditions: cited from earlier work
[1] = molecular target: GLP-1R endogenously expressed in the rat pancreatic INS-1E β-cell line (rat (endogenous in INS-1E)) (UniProt P32301)
Chain of GLP-1R endogenously expressed in the rat pancreatic INS-1E β-cell line (rat (endogenous in INS-1E)) (P32301 22-463): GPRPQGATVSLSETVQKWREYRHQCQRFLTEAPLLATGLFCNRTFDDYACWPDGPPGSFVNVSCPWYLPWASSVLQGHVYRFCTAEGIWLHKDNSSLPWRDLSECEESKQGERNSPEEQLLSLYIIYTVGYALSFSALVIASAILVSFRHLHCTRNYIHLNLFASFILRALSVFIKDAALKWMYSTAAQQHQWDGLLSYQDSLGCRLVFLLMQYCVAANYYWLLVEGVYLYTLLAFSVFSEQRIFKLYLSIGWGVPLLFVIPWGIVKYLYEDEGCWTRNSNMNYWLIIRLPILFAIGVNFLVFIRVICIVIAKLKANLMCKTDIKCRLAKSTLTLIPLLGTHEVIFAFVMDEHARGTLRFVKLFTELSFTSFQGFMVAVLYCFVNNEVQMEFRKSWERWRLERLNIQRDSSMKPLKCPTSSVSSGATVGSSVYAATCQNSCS

EC50 of peptide activity in rat INS-1E cells with 3 μM compound 3-20 (Emax 63%) [1] [nM]	EC50 of peptide activity in rat INS-1E cells with 3 μM compound 3-24 (Emax 60%) [1] [nM]	Compound	allosteric activity in GLP-1R binding site mutants (mutant GLP-1R)
–	–	COc1ccc(Cl)c([C@@H](C)n2cnc3ccc(-c4ccccc4[C@H]4CCCCN4)cc32)c1Cl [LSN3160440]	only abolished in a triple mutant
115	100	GLP-1(9-36) (peptide)	–
